Data taken from the supplement of paper PMC9112550, “Optimization of the antimicrobial peptide Bac7 by deep mutational scanning” (BMC Biology, 2022).

System: Escherichia coli TOP10
Assay: shrunken log2 fold change of peptide-encoding DNA abundance (4.5 h post-induction vs induction); higher = less antimicrobial activity (less host growth inhibition)
Conditions: time post-induction: 4.5 h; library: site-saturation at positions 5, 18, 19, 20
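Further: peptides expressed intracellularly from a pBAD plasmid library in pooled LB shake-flask culture, induced with 0.3% L-arabinose, DNA abundance read by NGS, three biological replicates, DESeq2 with apeglm shrinkage.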

Row | Sequence | shrunken log2 fold change
1 | RRIRVRPPRLPRPRPRPVLCPRP | 0.0228
2 | RRIRQRPPRLPRPRPRPYMTPRP | -0.122
3 | RRIRSRPPRLPRPRPRPERDPRP | 0.138
4 | RRIRRRPPRLPRPRPRPAFDPRP | 0.522
5 | RRIRFRPPRLPRPRPRPGNLPRP | -0.13
6 | RRIRRRPPRLPRPRPRPTCRPRP | 0.41
7 | RRIRKRPPRLPRPRPRPCDWPRP | -0.0282
8 | RRIRCRPPRLPRPRPRPQIHPRP | -0.548
9 | RRIRQRPPRLPRPRPRPMFTPRP | -0.31
10 | RRIRRRPPRLPRPRPRPQTCPRP | 0.247
11 | RRIRNRPPRLPRPRPRPYNVPRP | -0.526
12 | RRIRCRPPRLPRPRPRPSIYPRP | -0.713
13 | RRIRKRPPRLPRPRPRPPTKPRP | 0.12
14 | RRIRSRPPRLPRPRPRPHDEPRP | 0.0683
15 | RRIRGRPPRLPRPRPRPLMLPRP | 0.462
16 | RRIRCRPPRLPRPRPRPLKFPRP | -0.162
17 | RRIRDRPPRLPRPRPRPMPDPRP | -0.00281
18 | RRIRNRPPRLPRPRPRPWDNPRP | -0.0545
19 | RRIRRRPPRLPRPRPRPSEQPRP | 0.262
20 | RRIRPRPPRLPRPRPRPAMDPRP | 0.0161
21 | RRIRMRPPRLPRPRPRPYNMPRP | -0.348
22 | RRIRERPPRLPRPRPRPFNDPRP | -0.0864

Row | Sequence | shrunken log2 fold change
23 | RRIRMRPPRLPRPRPRPGKDPRP | 0.0653
24 | RRIRHRPPRLPRPRPRPAMYPRP | -0.0134
25 | RRIRRRPPRLPRPRPRPLQDPRP | 0.0495
26 | RRIRMRPPRLPRPRPRPSPNPRP | 0.0416
27 | RRIRGRPPRLPRPRPRPYHRPRP | -0.203
28 | RRIRWRPPRLPRPRPRPLVVPRP | 0.173
29 | RRIRKRPPRLPRPRPRPSMYPRP | -0.306
30 | RRIRTRPPRLPRPRPRPNDHPRP | -0.0838
31 | RRIRLRPPRLPRPRPRPLRHPRP | 0.171
32 | RRIRLRPPRLPRPRPRPDCLPRP | -0.0212
33 | RRIRCRPPRLPRPRPRPHGEPRP | 0.0148
34 | RRIRWRPPRLPRPRPRPFKQPRP | -0.104
35 | RRIRARPPRLPRPRPRPVQCPRP | 0.22
36 | RRIRGRPPRLPRPRPRPYMTPRP | 0.109
37 | RRIRVRPPRLPRPRPRPSHDPRP | -0.159
38 | RRIRLRPPRLPRPRPRPYMEPRP | 0.039
39 | RRIRTRPPRLPRPRPRPMPYPRP | -0.159
40 | RRIRRRPPRLPRPRPRPEDCPRP | -0.0482
41 | RRIRTRPPRLPRPRPRPVSNPRP | -0.442
42 | RRIRLRPPRLPRPRPRPNDHPRP | -0.43
43 | RRIRPRPPRLPRPRPRPWGPPRP | 0.368
44 | RRIRDRPPRLPRPRPRPPVSPRP | 0.0155

Row | Sequence | shrunken log2 fold change
45 | RRIRHRPPRLPRPRPRPDLAPRP | 0.0081
46 | RRIRERPPRLPRPRPRPEHWPRP | 0.0984
47 | RRIRPRPPRLPRPRPRPLLYPRP | -0.348
48 | RRIRLRPPRLPRPRPRPEIDPRP | -0.0103
49 | RRIRGRPPRLPRPRPRPPDHPRP | 0.982
50 | RRIRERPPRLPRPRPRPMGTPRP | -0.272
51 | RRIRFRPPRLPRPRPRPKMCPRP | -0.487
52 | RRIRNRPPRLPRPRPRPKALPRP | 0.0983
53 | RRIRPRPPRLPRPRPRPGMVPRP | 0.268
54 | RRIRERPPRLPRPRPRPHQLPRP | 0.0377
55 | RRIRNRPPRLPRPRPRPFMYPRP | -0.247
56 | RRIRGRPPRLPRPRPRPMRGPRP | 1.09
57 | RRIRTRPPRLPRPRPRPNMSPRP | -0.562
58 | RRIRYRPPRLPRPRPRPVTHPRP | 0.00542
59 | RRIRDRPPRLPRPRPRPGHGPRP | -0.0236
60 | RRIRGRPPRLPRPRPRPQQKPRP | 0.206
61 | RRIRDRPPRLPRPRPRPWSLPRP | 0.0709
62 | RRIRLRPPRLPRPRPRPWQKPRP | 0.0576
63 | RRIRQRPPRLPRPRPRPYGMPRP | -0.549
64 | RRIRVRPPRLPRPRPRPRTQPRP | 0.0785
65 | RRIRCRPPRLPRPRPRPYFRPRP | -0.759
66 | RRIRMRPPRLPRPRPRPKWTPRP | 0.0304

Row | Sequence | shrunken log2 fold change
67 | RRIRFRPPRLPRPRPRPRANPRP | 0.509
68 | RRIRTRPPRLPRPRPRPAKSPRP | -0.055
69 | RRIRPRPPRLPRPRPRPYCQPRP | -0.223
70 | RRIRYRPPRLPRPRPRPRCQPRP | -0.259
71 | RRIRDRPPRLPRPRPRPSCYPRP | -0.302
72 | RRIRTRPPRLPRPRPRPVNLPRP | -0.0397
73 | RRIRCRPPRLPRPRPRPWDFPRP | -0.0326
74 | RRIRRRPPRLPRPRPRPVAHPRP | 0.605
75 | RRIRGRPPRLPRPRPRPDLRPRP | 0.0067
76 | RRIRFRPPRLPRPRPRPLVQPRP | -0.052
77 | RRIRWRPPRLPRPRPRPYGDPRP | -0.113
78 | RRIRWRPPRLPRPRPRPCAGPRP | 0.0556
79 | RRIRMRPPRLPRPRPRPGLDPRP | 2.44
80 | RRIRWRPPRLPRPRPRPTAPPRP | 0.481
81 | RRIRHRPPRLPRPRPRPYEHPRP | -1.01
82 | RRIRIRPPRLPRPRPRPHSRPRP | -0.197
83 | RRIRSRPPRLPRPRPRPWKAPRP | -0.00809
84 | RRIRQRPPRLPRPRPRPVRVPRP | 0.686
85 | RRIRSRPPRLPRPRPRPMAAPRP | 1.8
86 | RRIRYRPPRLPRPRPRPDCNPRP | -0.871
87 | RRIRARPPRLPRPRPRPCCWPRP | 0.245
88 | RRIRNRPPRLPRPRPRPTFMPRP | -0.401

Row | Sequence | shrunken log2 fold change
89 | RRIRVRPPRLPRPRPRPTQFPRP | 0.203
90 | RRIRMRPPRLPRPRPRPHMLPRP | -0.245
91 | RRIRPRPPRLPRPRPRPESCPRP | 0.239
92 | RRIRERPPRLPRPRPRPQKSPRP | -0.202
93 | RRIRHRPPRLPRPRPRPFANPRP | -0.483
94 | RRIRLRPPRLPRPRPRPWNAPRP | -0.249
95 | RRIRCRPPRLPRPRPRPEAQPRP | 0.704
96 | RRIRIRPPRLPRPRPRPAGWPRP | 0.582
97 | RRIRPRPPRLPRPRPRPNKSPRP | 0.408
98 | RRIRGRPPRLPRPRPRPYWSPRP | -0.251
99 | RRIRWRPPRLPRPRPRPNPVPRP | -0.266
100 | RRIRNRPPRLPRPRPRPILNPRP | -0.353
101 | RRIRLRPPRLPRPRPRPDIPPRP | -0.0741
102 | RRIRQRPPRLPRPRPRPCMRPRP | 0.0607
103 | RRIRDRPPRLPRPRPRPKWQPRP | 0.276
104 | RRIRRRPPRLPRPRPRPRCMPRP | 0.1
105 | RRIRRRPPRLPRPRPRPSKFPRP | -0.0219
106 | RRIRRRPPRLPRPRPRPARDPRP | 0.185
107 | RRIRPRPPRLPRPRPRPWFMPRP | -0.18
108 | RRIRDRPPRLPRPRPRPPLVPRP | 0.194
109 | RRIRKRPPRLPRPRPRPDSIPRP | -0.0839
